Data: patent publication US20230348629A1

Molecular target: human TIGIT on HEK293A/human TIGIT cells (human) (UniProt Q495A1)
Assay: cell-based or functional assay

Sequence of human TIGIT on HEK293A/human TIGIT cells (human) (Q495A1 22-244 limits assumed): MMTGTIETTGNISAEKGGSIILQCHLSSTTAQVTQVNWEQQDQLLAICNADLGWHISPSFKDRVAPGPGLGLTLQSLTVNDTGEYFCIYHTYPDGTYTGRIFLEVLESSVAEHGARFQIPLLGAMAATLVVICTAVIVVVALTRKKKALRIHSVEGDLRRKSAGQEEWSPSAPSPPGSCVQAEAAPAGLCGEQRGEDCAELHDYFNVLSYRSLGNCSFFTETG

Tiragolumab (antibody)
EC50, NK92 (NK92MI-CD16a) cell-mediated ADCC, LDH release: 0.511 nM
EC50, PBMC-mediated ADCC, death rate of GFP+ cells by FACS: 0.311 nM
